# Test results: patent US20040248211A1, “ICAM-related protein” (priority 1992, published 2004)
# B1: ICR-1.1: anti-ICAM-R monoclonal antibody, IgG2a, domain 1, ATCC HB 11053 (antibody, V domains shown)
# VH: QVQLQQSGAELAKPGASVKMSCKASGYTFTVYWMHWVKQRPGQGLEWIGYINPNTDYTEYNQRFQDKATLTADKSSSTAYMQLSSLTSEDSAVYYCARWGGNSYGLDYWGQGTSVTVSS
# VL: QIVLTQSPALMSASPGEKVTMTCSASSSVSYIYWYQQKPRSSPKPWIYLTSNLASGVPARFSGSGSGASYSLTISIMEAEDAATYYCQQWKSIPLTFGAGTKLELK
# B2: ICR-8.1: anti-ICAM-R monoclonal antibody, IgG1, domain 1, ATCC HB 11232 (antibody, V domains shown)
# VH: EIQLQQTGPELVKPGASVKISCKASGYSFTDCIILWVKQSHGKGLEWIGKINPYFGTTTYNLKFKGKATLTVDKSSSTAHMQLNSLTSEDSAVYYCARKEAYPDAMDYWGQGTSVTVSS
# VL: DAVMTQTPLSLPVSLGDQASISCRSSQSLVHSNGDTYLHWYLQKPGQSPQLLIYKVSNRFSGVPDRFSGSGSGTDFTLKLSRVEAEDLGVYFCSQSTHVPYTFGGGTKLEIK
# Assays:
# U937 cells = assay: IL-8 release from U937; format: cell-based, human
# Method: (§1) Monocytes were isolated by elutriation from peripheral blood of normal donors. […] After blocking free sites, the cells were placed into the wells in medium. […] Those cells plated in wells treated with BSA plus or minus LPS were rounded and not spread. After 8 or 18 hours of incubation at 37° C., the medium was removed and assayed for IL-8 immunoreactivity. […] By 18 hours, IL-8 levels in media from ICR monoclonal antibody wells were much elevated over control levels. […] Similar experiments with monocytic cell lines (U937 and HL60) to determine if ICR monoclonal antibody can induce IL-8 release were conducted. U937 cells responded to each of the ICR monoclonal antibody treated wells by releasing IL-8 into the conditioned medium. […] No detectable morphological changes were detected with the U937 or HL60 cells.
# [1] = test system: PBMC responder and irradiated stimulator cells; assay: Alloantigen-induced lymphocyte proliferation; format: cell-based, human
# Method: Monoclonal antibodies to ICAM-R were also tested for the ability to alter lymphocyte proliferation (as measured by ^3H-thymidine incorporation) in response to alloantigenic irradiated stimulator cells. Responder cells were prepared by obtaining PBMC from a normal donor using Histopaque centrifugation as described above. To prepare stimulator cells, PBMC from a second, unrelated donor were concurrently isolated and irradiated at 1500R by exposure to a gamma emitting cesium source. Two hundred thousand responder cells and 2×10^5 irradiated stimulator cells (suspended in culture medium) were then added to wells containing soluble or immobilized ICR-1.1, ICR-2.1, ICR-3.1, ICR-4.2, ICR-5.1, ICR-6.2, ICR-7.1, ICR-8.1, ICR-9.2, immobilized B-H9, immobilized p10.1, or soluble 515F (anti-rat CD18) antibody and incubated for 6 days at 37° C., 5% CO2. Lymphocyte proliferation (^3H-thymidine incorporation) was assessed in the last 18-24 hours of culture.
# [2] = biological target: T1, Protein 1 (ICAM-R domain 1 fused to ICAM-1) (Homo sapiens, UniProt P05362+P32942, A175T/A179V/A227S/A249V/A265P/D143G/D183H/D240V/E159K/E168G/E234D/F135L/F230V/G202E/M196L/M262R/P127S/P187N/P238T/Q133K/Q164E/Q197R/R211Y/R214Q/R224Q/S145A/S149N/S162K/S180R/S236Q/T148A/T242S/V205E/V220A/W157G/W237G/Y255H); assay: FACS binding to COS cell transfectants; conditions: for percent positive COS cell transfectants, Protein 1: antibody 5.0 ug/ml
# T1 construct: immunoglobulin-like domain of ICAM-R (residues 1 to 93) fused to ICAM-1 (residue 117 to 532); ICAM-1 residue 117 to 532 (fusion partner in the same polypeptide); expressed in transfected cells; host or cells: COS cells, plasmid pcDNA1Amp.RD1.ID2-5
# Description: (§2) FIG. 7 is a diagram of the chimeric proteins whose construction is outlined below. Protein number 1 contains the amino-terminal immunoglobulin-like domain of ICAM-R (residues 1 to 93) fused to ICAM-1 (residue 117 to 532). Protein number 2 contains the first two amino terminal immunoglobulin-like domains of ICAM-R (residues 1 to 190) fused to ICAM-1 (residues 216 to 532). Protein number 3 contains the first three immunoglobulin-like domains of ICAM-R (residues 1 to 291) fused to ICAM-1 (residues 317 to 532).
# (§3) For the anti-ICAM-R monoclonal antibody binding assay, COS cells transfected with constructs encoding the ICAM-R chimeric proteins or control constructs were removed from the plates by EDTA treatment and aliquoted at 2.5×10^5 cells per well in a 96-well round bottom plate. Cells were washed 3 times with ice cold washing buffer (PBS containing 1% BSA and 0.05% sodium azide). Anti-ICAM-R monoclonal antibody was applied at 5.0 ug/ml in 50 ul final volume and incubated on ice for 30 minutes. Cells were then washed three times with cold washing buffer and incubated with the FITC labeled secondary antibody (sheep anti-mouse IgG F(ab′)2) at a 1:100 dilution on ice for 30 minutes in dark in 50 ul final volume. After the incubation, cells were washed again for three times in the ice cold washing buffer and resuspended in 200 ul of 1% paraformaldehyde. The samples were analyzed on a Becton-Dickinson FACScan instrument. Results of the assay are given below in Table 5 as percent positive COS cell transfectants, wherein MOPC 21 (IgG1) and UPC 10 (IgG2a) are isotype matched controls, 18E3D is an ICAM-1 specific monoclonal antibody and ICR-1.1 to ICR-9.2 are ICAM-R specific monoclonal antibodies. The reactivities of monoclonal antibodies ICR-1.1 through ICR-9.2 were assayed in a different experiment than monoclonal antibodies ICR-12.1 through ICR-17.1.
# [3] = biological target: T2, Protein 2 (ICAM-R domains 1-2 fused to ICAM-1) (Homo sapiens, UniProt P05362+P32942, A227S/A249V/A265P/D240V/E234D/F230V/M262R/P219L/P238T/R224Q/S236Q/T242S/V220A/W237G/Y255H); assay: FACS binding to COS cell transfectants; conditions: antibody 5.0 ug/ml
# T2 construct: domains of ICAM-R (residues 1 to 190) fused to ICAM-1 (residues 216 to 532); ICAM-1 residues 216 to 532 (fusion partner in the same polypeptide); expressed in transfected cells; host or cells: COS cells, plasmid pcDNA1Amp.RD1-2.1D3-5
# Description: as §2, §3
# human PBL = assay: SEA-induced proliferation of PBL; format: cell-based; conditions: for proliferation in response to SEA, plate-bound antibody: 3 days, 3H-thymidine
# Monocytes = assay: IL-8 release from monocytes; format: cell-based, human; conditions: wells coated 10 μg/ml
# Method: as §1
# T1 sequence (P32942+P05362 fused with the stated changes): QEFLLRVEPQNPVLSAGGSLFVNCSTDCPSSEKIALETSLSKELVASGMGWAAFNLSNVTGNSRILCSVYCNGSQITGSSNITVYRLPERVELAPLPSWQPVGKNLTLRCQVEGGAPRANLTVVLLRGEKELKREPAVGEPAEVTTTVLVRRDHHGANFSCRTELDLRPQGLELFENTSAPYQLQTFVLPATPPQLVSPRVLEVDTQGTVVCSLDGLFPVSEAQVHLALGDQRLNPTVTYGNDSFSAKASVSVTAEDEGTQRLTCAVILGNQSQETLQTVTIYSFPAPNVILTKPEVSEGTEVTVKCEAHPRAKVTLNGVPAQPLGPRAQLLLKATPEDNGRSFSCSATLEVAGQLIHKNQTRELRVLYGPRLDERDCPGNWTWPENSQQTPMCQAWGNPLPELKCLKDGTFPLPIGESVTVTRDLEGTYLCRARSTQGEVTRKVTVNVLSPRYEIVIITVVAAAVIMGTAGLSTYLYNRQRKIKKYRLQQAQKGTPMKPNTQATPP
# T2 sequence (P32942+P05362 fused with the stated changes): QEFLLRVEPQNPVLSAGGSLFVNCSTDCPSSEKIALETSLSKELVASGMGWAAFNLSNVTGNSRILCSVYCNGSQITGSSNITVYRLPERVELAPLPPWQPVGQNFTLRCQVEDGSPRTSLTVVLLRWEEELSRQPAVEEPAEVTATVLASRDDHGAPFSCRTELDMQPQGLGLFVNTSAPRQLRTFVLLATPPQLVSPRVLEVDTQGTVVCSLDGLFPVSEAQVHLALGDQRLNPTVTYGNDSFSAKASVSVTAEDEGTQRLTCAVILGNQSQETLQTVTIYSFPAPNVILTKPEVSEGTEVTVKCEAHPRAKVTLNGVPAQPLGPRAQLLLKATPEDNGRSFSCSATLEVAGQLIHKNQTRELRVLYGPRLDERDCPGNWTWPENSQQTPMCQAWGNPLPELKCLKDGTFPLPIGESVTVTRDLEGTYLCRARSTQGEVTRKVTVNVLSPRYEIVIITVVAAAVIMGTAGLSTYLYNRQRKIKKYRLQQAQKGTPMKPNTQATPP
Molecule,"IL-8 release relative to ICR-4.2, 6.2 or 8.1 treated wells (U937 cells)",Blockade of Lymphocyte Activation Alloantigen [1],"alloantigen proliferation, immobilized antibody ([1]; 6 days)",recognition of hybrid with only ICAM-R domain 1 (domain 1 specific) [2],"percent positive COS cell transfectants, Protein 1 [2]","percent positive COS cell transfectants, Protein 2 [3]",Blockade of Lymphocyte Activation SEA (human PBL),"proliferation in response to SEA, plate-bound antibody (human PBL)","IC50 (human PBL; from logistic dose response curves, proliferation versus control antibodies)",IL-8 level at 18 hours over the level at the 8 hour time point (Monocytes),IL-8 release relative to the BSA control (U937 cells),"alloantigen proliferation, soluble antibody ([1]; 6 days)"
B1,3 fold,YES,consistently reduced proliferation,recognize the hybrid molecule,60.27%,68.32%,YES,significantly inhibited proliferation,63 µg/mL,ten times,,
B2,,YES,consistently reduced proliferation,recognize the hybrid molecule,57.34%,64.25%,YES,significantly inhibited proliferation,,two times,twice,inhibited alloantigen-stimulated proliferation
